Test results reported in patent publication US20180142023A1 (Bristol-Myers Squibb, published 2018).

Target: human CD28 (human, UniProt P10747 19-220)
Experiment: cell-based or functional assay

Luciferase assay (EC50): 1.8 µM
B1: 1h-76 (other)
VL: DIQMTQSPSSLSASVGDRVTITCRASQYIGTRLVWYQQKPGKAPKLLIYQSSLLQSGVPSRFRGSGSGTDFTLTISSLQPEDSATYYCQQTALVPYTFGQGTKVEIKR
